Test results taken from patent publication US20060067886A1, “Gastrin receptor-avid peptide conjugates” (priority 1997, published 2006).

Assay: in vivo
Details: SCID, mouse, in vivo, iv, 4 uCi, total radioactivity; for tissue uptake at […] / tissue uptake at 1 h / tissue uptake at 48 h / tissue uptake at 0.5 h / tissue uptake at 4 h / tissue uptake at 24 h / tissue uptake at 72 h: Avg % ID/gm

For CSCC[C@H](NC(=O)[C@H](CC(C)C)NC(=O)[C@H](Cc1cnc[nH]1)NC(=O)CNC(=O)[C@@H](NC(=O)[C@H](C)NC(=O)[C@H](Cc1c[nH]c2ccccc12)NC(=O)[C@H](CCC(N)=O)NC(=O)CCCCCCCNC(=O)CN1CCN(CC(=O)O)CCN(CC(=O)O)CCN(CC(=O)O)CC1)C(C)C)C(N)=O [111In-DOTA-8-Aoc-BBN[7-14]NH2, metal not drawn], the tissue uptake dose at […] (Avg % ID, Blood, 15 min) was 7.92 ± 2.03 %ID, the tissue uptake dose at 0.5 h (Avg % ID, Blood, 30 min) was 2.47 ± 0.74 %ID and the tissue uptake dose at 1 h (Avg % ID, Blood, 1 hr) was 0.92 ± 0.58 %ID. For the same molecule, the tissue uptake dose at 48 h (Avg % ID, Blood) was 0.12 ± 0.05 %ID, the tissue uptake dose at […] (Avg % ID, Carcass, 15 min) was 33.1 ± 5.51 %ID and the tissue uptake dose at 0.5 h (Avg % ID, Carcass, 30 min) was 12.3 ± 3.27 %ID. The dose excreted at 24 h (Avg % ID, Feces, 24 hrs) was 6.1 ± 2.6%, the dose excreted at 48 h (Avg % ID, Feces) was 5.89 ± 3.81% and the tissue uptake dose at […] (Avg % ID, Heart, 15 min) was 0.2 ± 0.07 %ID. It also gave a tissue uptake dose at 0.5 h (Avg % ID, Heart, 30 min) of 0.06 ± 0.02 %ID, a tissue uptake dose at 4 h (Avg % ID, Heart, 4 hrs) of 0.01 ± 0.01 %ID and a tissue uptake dose at 48 h (Avg % ID, Heart) of 0.01 ± 0.01 %ID. For the same molecule, the tissue uptake dose at […] (Avg % ID, Kidney, 15 min) was 7.18 ± 3.16 %ID, the tissue uptake dose at 0.5 h (Avg % ID, Kidney, 30 min) was 2.45 ± 0.78 %ID and the tissue uptake dose at 1 h (Avg % ID, Kidney, 1 hr) was 1.81 ± 0.37 %ID. For the same molecule, the tissue uptake dose at 4 h (Avg % ID, Kidney, 4 hrs) was 0.97 ± 0.08 %ID, the tissue uptake dose at 48 h (Avg % ID, Kidney) was 0.16 ± 0.04 %ID and the tissue uptake dose at […] (Avg % ID, L. Intestine, 15 min) was 5.84 ± 0.9 %ID. The tissue uptake dose at 0.5 h (Avg % ID, L. Intestine, 30 min) was 4.53 ± 0.45 %ID, the tissue uptake dose at 1 h (Avg % ID, L. Intestine, 1 hr) was 2.18 ± 0.86 %ID and the tissue uptake dose at 24 h (Avg % ID, L. Intestine, 24 hrs) was 1.46 ± 0.42 %ID. It also gave a tissue uptake dose at 48 h (Avg % ID, L. Intestine) of 0.73 ± 0.21 %ID, a tissue uptake dose at 72 h (Avg % ID, L. Intestine, 72 hrs) of 0.41 ± 0.05 %ID and a tissue uptake dose at […] (Avg % ID, Liver, 15 min) of 1.85 ± 0.41 %ID. For the same molecule, the tissue uptake dose at 0.5 h (Avg % ID, Liver, 30 min) was 0.85 ± 0.21 %ID, the tissue uptake dose at 72 h (Avg % ID, Liver, 72 hrs) was 0.08 ± 0.01 %ID and the tissue uptake dose at […] (Avg % ID, Lung, 15 min) was 0.62 ± 0.25 %ID. The tissue uptake dose at 0.5 h (Avg % ID, Lung, 30 min) was 0.2 ± 0.06 %ID, the tissue uptake dose at 24 h (Avg % ID, Lung, 24 hrs) was 0.02 ± 0.01 %ID and the tissue uptake dose at 48 h (Avg % ID, Lung) was 0.01 %ID. It also gave a tissue uptake dose at […] (Avg % ID, Muscle, 15 min) of 0.16 ± 0.06 %ID, a tissue uptake dose at 0.5 h (Avg % ID, Muscle, 30 min) of 0.05 ± 0.02 %ID and a tissue uptake dose at 1 h (Avg % ID, Muscle, 1 hr) of 0.01 ± 0.01 %ID. For the same molecule, the tissue uptake dose at 24 h (Avg % ID, Muscle, 24 hrs) was 0.01 ± 0.01 %ID, the tissue uptake dose at […] (Avg % ID, Pancreas, 15 min) was 10.3 ± 1.44 %ID and the tissue uptake dose at 0.5 h (Avg % ID, Pancreas, 30 min) was 7.37 ± 1.2 %ID. The tissue uptake dose at 4 h (Avg % ID, Pancreas, 4 hrs) was 3.28 ± 0.8 %ID, the tissue uptake dose at 48 h (Avg % ID, Pancreas) was 0.17 ± 0.09 %ID and the tissue uptake dose at 72 h (Avg % ID, Pancreas, 72 hrs) was 0.06 ± 0.02 %ID. For the same molecule, the tissue uptake dose at […] (Avg % ID, S. Intestine, 15 min) was 6.98 ± 0.35 %ID, the tissue uptake dose at 0.5 h (Avg % ID, S. Intestine, 30 min) was 6.24 ± 0.46 %ID and the tissue uptake dose at 1 h (Avg % ID, S. Intestine, 1 hr) was 7.45 ± 1.62 %ID. For the same molecule, the tissue uptake dose at 4 h (Avg % ID, S. Intestine, 4 hrs) was 2.43 ± 0.56 %ID, the tissue uptake dose at 24 h (Avg % ID, S. Intestine, 24 hrs) was 0.98 ± 0.26 %ID and the tissue uptake dose at 48 h (Avg % ID, S. Intestine) was 0.32 ± 0.07 %ID. It also gave a tissue uptake dose at 72 h (Avg % ID, S. Intestine, 72 hrs) of 0.15 ± 0.02 %ID, a tissue uptake dose at […] (Avg % ID, Spleen, 15 min) of 0.1 ± 0.02 %ID and a tissue uptake dose at 0.5 h (Avg % ID, Spleen, 30 min) of 0.08 ± 0.03 %ID. For the same molecule, the tissue uptake dose at 48 h (Avg % ID, Spleen) was 0.01 ± 0.01 %ID, the tissue uptake dose at 72 h (Avg % ID, Spleen, 72 hrs) was 0.01 ± 0.01 %ID and the tissue uptake dose at […] (Avg % ID, Stomach, 15 min) was 0.98 ± 0.18 %ID. The tissue uptake dose at 0.5 h (Avg % ID, Stomach, 30 min) was 0.65 ± 0.04 %ID, the tissue uptake dose at 1 h (Avg % ID, Stomach, 1 hr) was 0.52 ± 0.11 %ID and the tissue uptake dose at 4 h (Avg % ID, Stomach, 4 hrs) was 0.34 ± 0.23 %ID. For the same molecule, the tissue uptake dose at 72 h (Avg % ID, Stomach, 72 hrs) was 0.02 ± 0.01 %ID, the tissue uptake dose at […] (Avg % ID, Tumor, 15 min) was 1.92 ± 1.22 %ID and the tissue uptake dose at 0.5 h (Avg % ID, Tumor, 30 min) was 0.99 ± 0.62 %ID. The tissue uptake dose at 24 h (Avg % ID, Tumor, 24 hrs) was 0.25 ± 0.13 %ID, the tissue uptake dose at 48 h (Avg % ID, Tumor) was 0.08 ± 0.05 %ID and the dose excreted at […] (Avg % ID, Urine, 15 min) was 27.9 ± 10.3%. The dose excreted at 0.5 h (Avg % ID, Urine, 30 min) was 62.6 ± 5.02%, the dose excreted at 1 h (Avg % ID, Urine, 1 hr) was 68.6 ± 6.96% and the dose excreted at 4 h (Avg % ID, Urine, 4 hrs) was 81.8 ± 3.82%. The dose excreted at 24 h (Avg % ID, Urine, 24 hrs) was 87.2 ± 4.31%, the dose excreted at 48 h (Avg % ID, Urine) was 91.8 ± 4.13% and the dose excreted at 72 h (Avg % ID, Urine, 72 hrs) was 92.5 ± 1.09%. For the same molecule, the tissue uptake at […] (Blood, 15 min) was 5.58 ± 2.43 %ID/g, the tissue uptake at 1 h (Blood, 1 hr) was 0.6 ± 0.39 %ID/g and the tissue uptake at 48 h (Blood) was 0.07 ± 0.03 %ID/g. For the same molecule, the tissue uptake at […] (Heart, 15 min) was 2.2 ± 1.05 %ID/g, the tissue uptake at 0.5 h (Heart, 30 min) was 0.62 ± 0.33 %ID/g and the tissue uptake at 4 h (Heart, 4 hrs) was 0.13 ± 0.06 %ID/g. It also gave a tissue uptake at 24 h (Heart, 24 hrs) of 0.05 ± 0.09 %ID/g, a tissue uptake at […] (Kidney, 15 min) of 29 ± 14.4 %ID/g and a tissue uptake at 0.5 h (Kidney, 30 min) of 8.7 ± 2.8 %ID/g. For the same molecule, the tissue uptake at 1 h (Kidney, 1 hr) was 5.66 ± 1.33 %ID/g, the tissue uptake at 4 h (Kidney, 4 hrs) was 3.18 ± 0.43 %ID/g and the tissue uptake at 48 h (Kidney) was 0.48 ± 0.09 %ID/g. For the same molecule, the tissue uptake at […] (L. Intestine, 15 min) was 8.58 ± 3.04 %ID/g, the tissue uptake at 0.5 h (L. Intestine, 30 min) was 4.33 ± 0.44 %ID/g and the tissue uptake at 1 h (L. Intestine, 1 hr) was 4.29 ± 2.55 %ID/g. The tissue uptake at 4 h (L. Intestine, 4 hrs) was 10.3 ± 2.7 %ID/g, the tissue uptake at 24 h (L. Intestine, 24 hrs) was 2.35 ± 0.43 %ID/g and the tissue uptake at 48 h (L. Intestine) was 0.81 ± 0.2 %ID/g. It also gave a tissue uptake at 72 h (L. Intestine, 72 hrs) of 0.45 ± 0.04 %ID/g, a tissue uptake at […] (Liver, 15 min) of 2.03 ± 0.85 %ID/g and a tissue uptake at 0.5 h (Liver, 30 min) of 0.7 ± 0.21 %ID/g. The tissue uptake at 72 h (Liver, 72 hrs) was 0.07 ± 0.02 %ID/g, the tissue uptake at 0.5 h (Lung, 30 min) was 0.94 ± 0.28 %ID/g and the tissue uptake at 48 h (Lung) was 0.06 ± 0.02 %ID/g. For the same molecule, the tissue uptake at 72 h (Lung, 72 hrs) was 0.02 ± 0.02 %ID/g, the tissue uptake at […] (Muscle, 15 min) was 1.3 ± 0.6 %ID/g and the tissue uptake at 0.5 h (Muscle, 30 min) was 0.32 ± 0.12 %ID/g. It also gave a tissue uptake at 1 h (Muscle, 1 hr) of 0.08 ± 0.07 %ID/g, a tissue uptake at […] (Pancreas, 15 min) of 54.3 ± 9.7 %ID/g and a tissue uptake at 0.5 h (Pancreas, 30 min) of 27.9 ± 3.44 %ID/g. It also gave a tissue uptake at 4 h (Pancreas, 4 hrs) of 16.6 ± 4.43 %ID/g, a tissue uptake at 48 h (Pancreas) of 0.77 ± 0.44 %ID/g and a tissue uptake at 72 h (Pancreas, 72 hrs) of 0.23 ± 0.08 %ID/g. It also gave a tissue uptake at 0.5 h (S. Intestine, 30 min) of 5.16 ± 1.06 %ID/g, a tissue uptake at 1 h (S. Intestine, 1 hr) of 6.8 ± 1.81 %ID/g and a tissue uptake at 4 h (S. Intestine, 4 hrs) of 2.24 ± 0.35 %ID/g. The tissue uptake at 48 h (S. Intestine) was 0.25 ± 0.06 %ID/g, the tissue uptake at 72 h (S. Intestine, 72 hrs) was 0.12 ± 0.02 %ID/g and the tissue uptake at […] (Spleen, 15 min) was 2.21 ± 0.8 %ID/g. For the same molecule, the tissue uptake at 0.5 h (Spleen, 30 min) was 0.83 ± 0.26 %ID/g, the tissue uptake at […] (Stomach, 15 min) was 3.3 ± 1.99 %ID/g and the tissue uptake at 0.5 h (Stomach, 30 min) was 1.82 ± 0.44 %ID/g. It also gave a tissue uptake at 1 h (Stomach, 1 hr) of 1.99 ± 0.24 %ID/g, a tissue uptake at 72 h (Stomach, 72 hrs) of 0.05 ± 0.02 %ID/g and a tissue uptake at 0.5 h (Tumor, 30 min) of 4.58 ± 0.53 %ID/g. For the same molecule, the tissue uptake at 4 h (Tumor, 4 hrs) was 1.78 ± 1.09 %ID/g, the tissue uptake at 48 h (Tumor) was 0.68 ± 0.24 %ID/g and the tissue uptake at 72 h (Tumor, 72 hrs) was 0.34 ± 0.1 %ID/g. For the same molecule, the dose excreted at 24 h (excretion through the hepatobiliary pathway, 24 hours p.i.) was 8.5%.
